Results: patent US20120316071A1

Assays:
[1] = molecular target: rHuman EGF R/Fc Chimera, CF (R&D Systems Cat#344-ER) (human) (UniProt P00533); experiment: MSD Multispot ECL, antigen spotted on plate, Fab at 15 nM; blank spot 261
[2] = molecular target: rHuman ErbB2/Fc Chimera, CF (R&D Systems Cat#1129-ER) (human) (UniProt P04626); experiment: as above
[3] = molecular target: rHuman HGF R/c-MET/Fc Chimera, CF (R&D Systems Cat#358-MT/CF) (human) (UniProt P08581); experiment: as above
[4] = molecular target: rHuman IGF-1 sR, (IGF-1 sR), CF (R&D Systems Cat#391-GR) (human) (UniProt P08069); experiment: as above
[5] = molecular target: rHuman EGF R/Fc Chimera, CF (R&D Systems Cat#344-ER) (human) (UniProt P00533); experiment: MSD Multispot ECL, antigen spotted on plate, Fab at 30 nM; blank spot 213
[6] = molecular target: rHuman ErbB2/Fc Chimera, CF (R&D Systems Cat#1129-ER) (human) (UniProt P04626); experiment: as above
[7] = molecular target: rHuman HGF R/c-MET/Fc Chimera, CF (R&D Systems Cat#358-MT/CF) (human) (UniProt P08581); experiment: as above
[8] = molecular target: rHuman IGF-1 sR, (IGF-1 sR), CF (R&D Systems Cat#391-GR) (human) (UniProt P08069); experiment: as above
[9] = molecular target: rHuman EGF R/Fc Chimera, CF (R&D Systems Cat#344-ER) (human) (UniProt P00533); experiment: MSD Multispot ECL, antigen spotted on plate, Fab at 60 nM; blank spot 237
[10] = molecular target: rHuman ErbB2/Fc Chimera, CF (R&D Systems Cat#1129-ER) (human) (UniProt P04626); experiment: as above
[11] = molecular target: rHuman HGF R/c-MET/Fc Chimera, CF (R&D Systems Cat#358-MT/CF) (human) (UniProt P08581); experiment: as above
[12] = molecular target: rHuman IGF-1 sR, (IGF-1 sR), CF (R&D Systems Cat#391-GR) (human) (UniProt P08069); experiment: as above
[13] = molecular target: rHuman EGF R/Fc Chimera, CF (R&D Systems Cat#344-ER) (human) (UniProt P00533); experiment: MSD Multispot ECL, antigen spotted on plate, Fab at 120 nM; blank spot 363
[14] = molecular target: rHuman ErbB2/Fc Chimera, CF (R&D Systems Cat#1129-ER) (human) (UniProt P04626); experiment: as above
[15] = molecular target: rHuman HGF R/c-MET/Fc Chimera, CF (R&D Systems Cat#358-MT/CF) (human) (UniProt P08581); experiment: as above
[16] = molecular target: rHuman IGF-1 sR, (IGF-1 sR), CF (R&D Systems Cat#391-GR) (human) (UniProt P08069); experiment: as above
[17] = molecular target: rHuman EGF R/Fc Chimera, CF (R&D Systems Cat#344-ER) (human) (UniProt P00533); experiment: MSD Multispot ECL, antigen spotted on plate, Fab at 240 nM; blank spot 316
[18] = molecular target: rHuman ErbB2/Fc Chimera, CF (R&D Systems Cat#1129-ER) (human) (UniProt P04626); experiment: as above
[19] = molecular target: rHuman HGF R/c-MET/Fc Chimera, CF (R&D Systems Cat#358-MT/CF) (human) (UniProt P08581); experiment: as above
[20] = molecular target: rHuman IGF-1 sR, (IGF-1 sR), CF (R&D Systems Cat#391-GR) (human) (UniProt P08069); experiment: as above
[21] = molecular target: rHuman EGF R/Fc Chimera, CF (R&D Systems Cat#344-ER) (human) (UniProt P00533); experiment: MSD Multispot ECL, antigen spotted on plate, Fab at 3.8 nM; blank spot 198
[22] = molecular target: rHuman ErbB2/Fc Chimera, CF (R&D Systems Cat#1129-ER) (human) (UniProt P04626); experiment: as above
[23] = molecular target: rHuman HGF R/c-MET/Fc Chimera, CF (R&D Systems Cat#358-MT/CF) (human) (UniProt P08581); experiment: as above
[24] = molecular target: rHuman IGF-1 sR, (IGF-1 sR), CF (R&D Systems Cat#391-GR) (human) (UniProt P08069); experiment: as above
[25] = molecular target: rHuman EGF R/Fc Chimera, CF (R&D Systems Cat#344-ER) (human) (UniProt P00533); experiment: MSD Multispot ECL, antigen spotted on plate, Fab at 480 nM; blank spot 362
[26] = molecular target: rHuman ErbB2/Fc Chimera, CF (R&D Systems Cat#1129-ER) (human) (UniProt P04626); experiment: as above
[27] = molecular target: rHuman HGF R/c-MET/Fc Chimera, CF (R&D Systems Cat#358-MT/CF) (human) (UniProt P08581); experiment: as above
[28] = molecular target: rHuman IGF-1 sR, (IGF-1 sR), CF (R&D Systems Cat#391-GR) (human) (UniProt P08069); experiment: as above
[29] = molecular target: rHuman EGF R/Fc Chimera, CF (R&D Systems Cat#344-ER) (human) (UniProt P00533); experiment: MSD Multispot ECL, antigen spotted on plate, Fab at 7.5 nM; blank spot 217
[30] = molecular target: rHuman ErbB2/Fc Chimera, CF (R&D Systems Cat#1129-ER) (human) (UniProt P04626); experiment: as above
[31] = molecular target: rHuman HGF R/c-MET/Fc Chimera, CF (R&D Systems Cat#358-MT/CF) (human) (UniProt P08581); experiment: as above
[32] = molecular target: rHuman IGF-1 sR, (IGF-1 sR), CF (R&D Systems Cat#391-GR) (human) (UniProt P08069); experiment: as above
[33] = molecular target: rHuman ErbB2/Fc Chimera (human) (UniProt P04626); experiment: ECL (MSD) multispot assay, antigen spotted; blank spot of this row 236
[34] = molecular target: rHuman EGF R/Fc Chimera, CF (R&D Systems Cat#344-ER) (human) (UniProt P00533); experiment: ECL multispot (MSD) binding assay, antigen spotted on plate, Fab 0.04 uM
[35] = molecular target: rHuman ErbB2/Fc Chimera, CF (R&D Systems Cat#1129-ER) (human) (UniProt P04626); experiment: as above
[36] = molecular target: rHuman ErbB2/Fc Chimera (human) (UniProt P04626); experiment: ECL (MSD) multispot assay, antigen spotted; blank spot of this row 223
[37] = molecular target: Recombinant Human DLL4 (R&D Systems Cat#1506-D4/CF) (human) (UniProt Q9NR61); experiment: ELISA, DLL4 coated on plate, Fab at […] (cells of this row shifted one column left)

Chain of rHuman HGF R/c-MET/Fc Chimera, CF (R&D Systems Cat#358-MT/CF) (human) (P08581 25-932, change not shown): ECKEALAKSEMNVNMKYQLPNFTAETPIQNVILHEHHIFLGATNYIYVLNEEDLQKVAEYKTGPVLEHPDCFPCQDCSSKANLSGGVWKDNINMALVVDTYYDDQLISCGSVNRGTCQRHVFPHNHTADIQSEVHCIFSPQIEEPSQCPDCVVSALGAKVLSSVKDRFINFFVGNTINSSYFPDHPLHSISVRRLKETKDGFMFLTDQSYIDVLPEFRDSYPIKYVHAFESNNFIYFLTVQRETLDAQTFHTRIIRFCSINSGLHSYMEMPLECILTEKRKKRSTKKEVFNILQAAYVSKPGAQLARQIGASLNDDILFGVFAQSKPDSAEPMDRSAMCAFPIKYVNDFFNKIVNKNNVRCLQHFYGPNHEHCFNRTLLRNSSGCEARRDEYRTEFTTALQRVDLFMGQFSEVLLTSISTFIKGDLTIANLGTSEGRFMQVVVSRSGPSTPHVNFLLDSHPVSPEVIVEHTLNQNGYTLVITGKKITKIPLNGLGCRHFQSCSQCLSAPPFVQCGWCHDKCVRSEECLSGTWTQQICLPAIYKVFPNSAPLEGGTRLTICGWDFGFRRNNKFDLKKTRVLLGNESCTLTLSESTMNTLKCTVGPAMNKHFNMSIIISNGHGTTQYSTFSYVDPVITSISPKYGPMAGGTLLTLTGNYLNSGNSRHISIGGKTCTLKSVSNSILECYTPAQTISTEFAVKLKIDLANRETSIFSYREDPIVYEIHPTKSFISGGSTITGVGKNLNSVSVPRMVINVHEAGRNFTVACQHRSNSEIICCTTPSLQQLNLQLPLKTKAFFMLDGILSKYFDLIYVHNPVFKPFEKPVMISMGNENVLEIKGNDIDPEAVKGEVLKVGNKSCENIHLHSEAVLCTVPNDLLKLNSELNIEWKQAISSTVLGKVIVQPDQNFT

B1: Fab VH6-1_IGHD3-3*01_IGHJ4*01 & V4-3_IGLJ4*01 (Fab, V domains shown)
VH: QVQLQQSGPGLVKPSQTLSLTCAISGDSVSSNSAAWNWIRQSPSRGLEWLGRTYYRSKWYNDYAVSVKSRITINPDTSKNQFSLQLNSVTPEDTAVYYCAREYYDFWSGYYTDYFDYWGQGTLVTVSS
VL: QPVLTQPTSLSASPGASARLTCTLRSGINLGSYRIFWYQQKPESPPRYLLSYYSDSSKHQGSGVPSRFSGSKDASSNAGILVISGLQSEDEADYYCMIWHSSASFVFGGGTQLIIL
- ECL signal [1]: 584
- ECL signal [2]: 713
- ECL signal [3]: 694
- ECL signal [4]: 705
- ECL signal [5]: 585
- ECL signal [6]: 726
- ECL signal [7]: 640
- ECL signal [8]: 697
- ECL signal [9]: 679
- ECL signal [10]: 777
- ECL signal [11]: 623
- ECL signal [12]: 654
- ECL signal [13]: 658
- ECL signal [14]: 822
- ECL signal [15]: 785
- ECL signal [16]: 813
- ECL signal [17]: 690
- ECL signal [18]: 833
- ECL signal [19]: 834
- ECL signal [20]: 625
- ECL signal [21]: 511
- ECL signal [22]: 714
- ECL signal [23]: 519
- ECL signal [24]: 463
- ECL signal [25]: 877
- ECL signal [26]: 965
- ECL signal [27]: 951
- ECL signal [28]: 741
- ECL signal [29]: 582
- ECL signal [30]: 695
- ECL signal [31]: 558
- ECL signal [32]: 642

B2: Fab VH5-51_IGHD5-18*01>3_IGHJ4*01 G100K/G104T S84V & V3-4_IGLJ1*01 (Fab, V domains shown)
VH: EVQLVQSGAEVKKPGESLKISCKGSGYSFTSYWIGWVRQMPGKGLEWMGIIYPGDSDTRYSPSFQGQVTISADKSISTAYLQWVSLKASDTAMYYCARRKYSYTYDYFDYWGQGTLVTVSS
VL: QTVVTQEPSFSVSPGGTVTLTCGLSSGSVSTSYYPSWYQQTPGQAPRTLIYSTNTRSSGVPDRFSGSILGNKAALTITGAQADDESDYYCVLYMGSGISYVFGTGTKVTVL
- ECL signal [33]: 1040

B3: Fab VH5-51_IGHD5-18*01>3_IGHJ4*01 G100K/G104T (H:KT) & V3-4_IGLJ1*01 G97A (Fab, V domains shown)
VH: EVQLVQSGAEVKKPGESLKISCKGSGYSFTSYWIGWVRQMPGKGLEWMGIIYPGDSDTRYSPSFQGQVTISADKSISTAYLQWSSLKASDTAMYYCARRKYSYTYDYFDYWGQGTLVTVSS
VL: QTVVTQEPSFSVSPGGTVTLTCGLSSGSVSTSYYPSWYQQTPGQAPRTLIYSTNTRSSGVPDRFSGSILGNKAALTITGAQADDESDYYCVLYMGSAISYVFGTGTKVTVL
- ECL signal [34]: 1060
- ECL signal [35]: 1290

B4: Fab VH5-51_IGHD5-18*01>3_IGHJ4*01 G100K/G104T S84L & V3-4_IGLJ1*01 (Fab, V domains shown)
VH: EVQLVQSGAEVKKPGESLKISCKGSGYSFTSYWIGWVRQMPGKGLEWMGIIYPGDSDTRYSPSFQGQVTISADKSISTAYLQWLSLKASDTAMYYCARRKYSYTYDYFDYWGQGTLVTVSS
VL: QTVVTQEPSFSVSPGGTVTLTCGLSSGSVSTSYYPSWYQQTPGQAPRTLIYSTNTRSSGVPDRFSGSILGNKAALTITGAQADDESDYYCVLYMGSGISYVFGTGTKVTVL
- ECL signal [36]: 1090

B5: Fab VH5-51_IGHD5-18*01>3_IGHJ4*01 G100K/G104T S28R (H:KT S28R) & V3-4_IGLJ1*01 M94R/S96M (L:RM) (Fab, V domains shown)
VH: EVQLVQSGAEVKKPGESLKISCKGSGYRFTSYWIGWVRQMPGKGLEWMGIIYPGDSDTRYSPSFQGQVTISADKSISTAYLQWSSLKASDTAMYYCARRKYSYTYDYFDYWGQGTLVTVSS
VL: QTVVTQEPSFSVSPGGTVTLTCGLSSGSVSTSYYPSWYQQTPGQAPRTLIYSTNTRSSGVPDRFSGSILGNKAALTITGAQADDESDYYCVLYRGMGISYVFGTGTKVTVL
- ELISA signal [37]: 0.001
